Assay results reported in PMC3947186 (Structure (London, England : 1993), 2013).
Like-named read-outs stand apart in the source and are kept apart here. Blank lines part the entries; values can stand above or below the molecule they belong to.

Columns and labels:
Test in all cases: ITC
[1] = biological target: mouse CSL core domain (residues 53-474), wild type (mouse) (UniProt P31266)
[2] = biological target: mouse CSL core domain (residues 53-474), wild type (mouse) (UniProt P31266); remark: listed apart in the source
[3] = biological target: BTD of mouse CSL (residues 203-393) (mouse) (UniProt P31266)
[4] = biological target: mouse CSL core domain (53-474) mutant A284R (mouse) (UniProt P31266)
[5] = biological target: mouse CSL core domain (53-474) mutant F261R (mouse) (UniProt P31266)
[6] = biological target: mouse CSL core domain (53-474) mutant Q333R (mouse) (UniProt P31266)
[7] = biological target: mouse CSL core domain (53-474) mutant V263R (mouse) (UniProt P31266)
[8] = biological target: mouse CSL core domain (residues 53-474), wild type (mouse) (UniProt P31266); remark: listed apart in the source
[9] = biological target: mouse CSL core domain (residues 53-474), wild type (mouse) (UniProt P31266); remark: listed apart in the source
[10] = biological target: mouse CSL core domain (residues 53-474), wild type (mouse, UniProt P31266 53-474)
Chain of mouse CSL core domain (residues 53-474), wild type (P31266 53-474): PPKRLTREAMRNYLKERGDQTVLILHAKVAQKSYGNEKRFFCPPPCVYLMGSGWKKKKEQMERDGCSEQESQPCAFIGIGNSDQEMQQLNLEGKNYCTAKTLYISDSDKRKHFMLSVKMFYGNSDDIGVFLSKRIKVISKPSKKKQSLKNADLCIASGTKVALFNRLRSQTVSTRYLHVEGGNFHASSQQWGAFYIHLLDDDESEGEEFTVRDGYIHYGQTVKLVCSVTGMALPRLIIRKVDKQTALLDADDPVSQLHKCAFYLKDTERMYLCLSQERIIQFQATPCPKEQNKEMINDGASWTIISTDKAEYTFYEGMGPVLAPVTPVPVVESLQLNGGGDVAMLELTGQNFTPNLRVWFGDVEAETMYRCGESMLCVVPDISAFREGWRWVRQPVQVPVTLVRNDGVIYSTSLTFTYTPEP

Chain of mouse CSL core domain (53-474) mutant V263R (mouse) (P31266 53-474 V263R): as the sequence (P31266 53-474) above, with V211R counted along it
Chain of mouse CSL core domain (53-474) mutant Q333R (mouse) (P31266 53-474 Q333R): as the sequence (P31266 53-474) above, with Q281R counted along it
Chain of mouse CSL core domain (residues 53-474), wild type (mouse) (P31266 53-474): as the sequence (P31266 53-474) above
Chain of mouse CSL core domain (53-474) mutant F261R (mouse) (P31266 53-474 F261R): as the sequence (P31266 53-474) above, with F209R counted along it
Chain of BTD of mouse CSL (residues 203-393) (mouse) (P31266 203-393): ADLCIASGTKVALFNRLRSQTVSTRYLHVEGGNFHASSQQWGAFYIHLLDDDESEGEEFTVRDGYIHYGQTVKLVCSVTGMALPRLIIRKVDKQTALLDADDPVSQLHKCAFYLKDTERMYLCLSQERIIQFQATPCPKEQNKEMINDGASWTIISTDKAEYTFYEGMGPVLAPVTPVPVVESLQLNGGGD
Chain of mouse CSL core domain (53-474) mutant A284R (mouse) (P31266 53-474 A284R): as the sequence (P31266 53-474) above, with A232R counted along it

- Ka [1]: 7.1e+07 M⁻¹
- Kd [1]: 15 nM
- dH [1]: -16 kcal/mol
Molecule: mouse KyoT2 (residues 182-210) (peptide)

- Ka [1]: 2e+07 M⁻¹
- Kd [1]: 22 nM
- dH [1]: -7.5 kcal/mol
Molecule: RAM domain of Notch1, mutant Q1763A (from UniProt P46531 19-2555) (domain or fragment)

- Ka [1]: 3.1e+07 M⁻¹
- dH [1]: -13.1 kcal/mol
Molecule: mouse KyoT2 (residues 184-200) (peptide)

- Kd [1]: 69 nM
- dH [1]: -13.7 kcal/mol
Molecule: KyoT2 V186A (in the construct 184-210) (peptide)

- Ka [1]: 1.2e+08 M⁻¹
- Kd [1]: 12 nM
- dH [1]: -16 kcal/mol
Molecule: KyoT2 KD196AA (in the construct 184-210) (peptide)

- Ka [1]: 6.8e+07 M⁻¹
- Kd [1]: 15 nM
- dH [1]: -18.2 kcal/mol
Molecule: RAM domain of Notch1, wild type (from UniProt P46531 19-2555) (domain or fragment)

- Ka [2]: 1.1e+08 M⁻¹
- Kd [2]: 11 nM
- dH [2]: -11 kcal/mol
- Kd [3]: 26 nM
- dH [3]: -13.6 kcal/mol
- Kd [4]: 7200 nM
- dH [4]: -10.5 kcal/mol
- Ka [5]: 340000 M⁻¹
- Kd [5]: 6300 nM
- dH [5]: -5.6 kcal/mol
- Ka [6]: 2e+07 M⁻¹
- Kd [6]: 51 nM
- dH [6]: -11.7 kcal/mol
- Ka [7]: 3.1e+07 M⁻¹
- Kd [7]: 19 nM
- dH [7]: -12.9 kcal/mol
- Ka [1]: 8.5e+07 M⁻¹
- Kd [1]: 12 nM
- dH [1]: -15.5 kcal/mol
- stoichiometry N [1]: 1
- Ka [8]: 9.4e+07 M⁻¹
- Kd [8]: 11 nM
- dH [8]: -14.6 kcal/mol
Molecule: mouse KyoT2 (residues 184-210) (peptide)

- Kd [9]: 8000 nM
Molecule: VWWP [KyoT2 tetrapeptide VWWP (residues 190-193)]

- binding result [10]: binds
Molecule: APVWWPMK [KyoT2 peptide APVWWPMK (residues 188-195)]

- fold enhancement in binding against the peptide APVWWPMK [10]: ~40 fold
Molecule: KAPVWWPMKD [KyoT2 peptide KAPVWWPMKD (residues 187-196)]
